US20040214258A1

Target: hR.Luc-connector-DhaA.H272F-Flag fusion protein with covalently bound biotin-C18H32O4-Cl substrate (Rhodococcus rhodochrous) (UniProt P0A3G2)
Assay: capture on SA-coated 96-well plate through tethered biotin; captured luciferase activity measured

streptavidin (SA) coated on a solid support (from UniProt P22629 37-163)
efficiency of capturing (% of Renilla luciferase activity added to the plate): > 50%
